This note sets out measurements from patent publication US20200347130A1 (JIANGSU HENGRUI MEDICINE, published 2020).

Assay [1] deals with T1, Biotinylated CD96 antigen (human, UniProt P40200-2 22-503, limits assumed, biotinylated).
T1 sequence (looked up): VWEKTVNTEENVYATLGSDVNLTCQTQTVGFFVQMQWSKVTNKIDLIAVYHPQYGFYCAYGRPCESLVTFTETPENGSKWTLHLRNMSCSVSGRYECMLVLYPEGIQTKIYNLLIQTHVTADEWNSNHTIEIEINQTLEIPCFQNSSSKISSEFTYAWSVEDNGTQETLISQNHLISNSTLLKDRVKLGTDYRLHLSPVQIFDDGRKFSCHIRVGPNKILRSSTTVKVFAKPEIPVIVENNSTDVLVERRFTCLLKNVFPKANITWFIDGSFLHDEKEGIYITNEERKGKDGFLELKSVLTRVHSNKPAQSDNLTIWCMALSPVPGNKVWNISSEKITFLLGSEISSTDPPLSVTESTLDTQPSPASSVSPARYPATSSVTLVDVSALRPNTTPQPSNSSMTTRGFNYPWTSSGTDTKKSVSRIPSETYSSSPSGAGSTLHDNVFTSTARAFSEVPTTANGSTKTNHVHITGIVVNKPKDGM
Description: competition ELISA: antibody B pre-incubated with biotinylated CD96 antigen, added to a plate coated with antibody A, HRP-streptavidin, OD450; competitor: coated h1722-010. As to the method: Competitive assays of different antibodies binding to CD96 protein were used to classify binding epitopes of the antibodies. The specific experimental methods are as follows:
Antibody A was diluted to a concentration of 2 μg/ml with PBS buffer (Shanghai Yuanpei Biotechnology Co., Ltd. Cat No. B320), pH 7.4, added to a 96-well microtiter plate (Corning, Cat No. CLS3590-100EA) at a volume of 50 μl/well, and coated at 4° C. overnight. After discarding the liquid, 250 μl/well of 5% skim milk (BD skim milk, Cat No. 232100) blocking solution diluted with PBS was added, and the plate was incubated at 37° C. for 3 hours. After blocking, the blocking solution was discarded, and the plate was washed 5 times with PBST buffer (pH 7.4 PBS containing 0.05% tween-20) and stored for later use. Antibody B was diluted to 40 μg/ml and 8 μg/ml with 1% BSA, and Biotinylated CD96 antigen was simultaneously diluted to 4 μg/mL. Subsequently, antibody B and antigen were mixed in a 1:1 volume ratio, pre-incubated at 37° C. for 45 minutes, added into the enzyme plate coated with antibody A, thus incubating the plate in an incubator at 37° C. for 1.5 hours. […] The absorption value was read at 450 nm with a NOVOStar microplate reader, and the OD value was used to determine whether A and B CD96 antibodies compete with each other. […]
(In general: In an ELISA, binding on a coated surface is turned into a signal by an enzyme label.)

Assay [2] has as its target T2, CD96 epitope peptide #3 IAVYHPQYGFYCAYGRPCES (47-66) (human).
T2 construct: also called 3# peptides; #3 antigen fragment
T2 peptide: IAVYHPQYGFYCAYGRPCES
Put plainly: peptide ELISA, peptide coated. As to the method:
(§1) The epitopes recognized by anti-CD96 antibody were detected by the assay of binding the antibody to different polypeptide fragments of CD96 protein. The fragments of different polypeptides of the CD96 antigen were coated on the microtiter plate. The signal density after the antibody was added was used to judge the binding activity of the antibody and the polypeptide. The specific experimental method is as follows:
(§2) The polypeptides were diluted to a concentration of 20 μg/ml with PBS buffer (Shanghai Yuanpei Biotechnology Co., Ltd. Cat No. B320), pH 7.4, added to a 96-well microtiter plate (Corning, Cat No. CLS3590-100EA) at a volume of 50 μl/well, and coated at 4° C. overnight. After discarding the liquid, 250 μl/well of 5% skim milk (BD skim milk, Cat No. 232100) blocking solution diluted with PBS was added, and the plate was incubated in an incubator at 37° C. for 3 hours. After blocking, the blocking solution was discarded, and the plate was washed 5 times with PBST buffer (pH 7.4 PBS containing 0.05% tween-20). 50 μl/well of different concentrations of the antibodies to be tested (hybridoma purification antibody or humanized antibody) diluted with sample dilution was added, and the plate was incubated in an incubator at 37° C. for 2 hours. […] After washing the plate 5 times with PBST, 50 μl/well of TMB chromogenic substrate (KPL, Cat No. 52-00-03) was added, the plate was incubated at room temperature for 5-15 min, followed by adding 50 μl/well of 1M H₂SO₄ to stop the reaction. The absorption value was read at 450 nm with a microplate reader (Thermo Scientific MuLtiskan MK3), and the epitopes that CD96 antibody can recognize were analyzed.

For assay [3], the target named is T3, CD96 epitope peptide #20 (295-314) (human).
T3 peptide: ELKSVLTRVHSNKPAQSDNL
Description: peptide ELISA, peptide coated. As to the method: as §1, §2

Assay [4] deals with T4, CD96 epitope peptide #11 (166-185) (human).
T4 peptide: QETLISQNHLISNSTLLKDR
Put plainly: peptide ELISA, peptide coated. As to the method:
as §1, §2

Assay [5] has as its target T5, CD96 epitope peptide #8 (122-141) (human).
T5 peptide: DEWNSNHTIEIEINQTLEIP
Put plainly: peptide ELISA, peptide coated. As to the method:
as §1, §2

The target of assay [6] is T6, CD96 epitope peptide #21 (310-329) (human).
T6 peptide: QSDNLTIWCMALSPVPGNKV
Description: peptide ELISA, peptide coated. How it is done: as §1, §2

Assay [7] addresses T7, CD96 epitope peptide #7 (107-126) (human).
T7 peptide: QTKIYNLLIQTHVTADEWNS
Description: peptide ELISA, peptide coated. How it is done:
as §1, §2

Assay [8] addresses T8, CD96 epitope peptide #15 (220-239) (human).
T8 peptide: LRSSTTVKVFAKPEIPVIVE
Put plainly: peptide ELISA, peptide coated. How it is done: as §1, §2

Assay [9] has as its target T9, CD96 epitope peptide #13 (196-215) (human).
T9 peptide: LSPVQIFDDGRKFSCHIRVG
Description: peptide ELISA, peptide coated. As to the method: as §1, §2

The target of assay [10] is T10, CD96 epitope peptide #4 (62-81) (human).
T10 peptide: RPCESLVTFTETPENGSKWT
Description: peptide ELISA, peptide coated. As to the method: as §1, §2

Assay [11] deals with T11, CD96 epitope peptide #9 (137-156) (human).
T11 peptide: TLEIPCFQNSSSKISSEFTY
Put plainly: peptide ELISA, peptide coated. How it is done:
as §1, §2

The target in assay [12] is T12, CD96 epitope peptide #18 (265-284) (human).
T12 peptide: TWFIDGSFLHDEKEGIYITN
Description: peptide ELISA, peptide coated. How it is done:
as §1, §2

B1: h1722-010 (antibody, V domains shown)
VH: EVQLVQSGAEVKKPGSSVKVSCKASGGTFSDYWMHWVRQAPGQGLEWIGMLHPNSGTTSFNEKFKIRVTITADKSTSTAYMELSSLRSEDTAVYYCASDYSGPFAYWGQGTLVTVSS
VL: DIQLTQSPSSLSASVGDRVTITCSASSSVNYIHWYQQKPGKAPKRWIFDTSKLASGVPSRFSGSGSGTDYTLTISSLQPEDFATYYCQQWRSNPLTFGQGTKLEIK
notes: Only variable regions are tied to this name; also called M722-010
With B1, the “IC50 (read off the curve)” value in assay [1] was ~500 pM.

B2: ch1720 (antibody, human IgG4 S228P, kappa, V domains shown)
VH: EFQLQQSGPELVKPGASVKISCKASAYSLTDYNMNWVKQSNGKSLEWIGVINPSYGISSYNQKFKGKATLTVDQSSSTAYMHLNSLTSEDSAVYYCARQLRLPGYFDVWGTGTTVTVSS
VL: DIKMTQSPSSKNASLGERVTITCKASQDINSYLNWFQQKPGKSPKTLIYRASRLVDGVPSRFSGSGSGQDYSLTISSLEYEDMGIYYCLKYDEFPYTFGGGTKLEIKR
notes: also called chimeric antibody corresponding to m1720
Turning to B2, the binding result in assay [2] is recorded as “binds”.

B3: ch1718 (antibody, human IgG4 S228P, kappa, V domains shown)
VH: EFQLQQSGPELVKPGASVKISCKASAYSITDYNMNWVKQSNGKSLEWIGVINPSYGITDYNQNFKDKATLTVDQSSSTAYMQLNSLTSEDSAVYYCAIQLRLPGYFDVWGTGTTVIVSS
VL: DIKMTQSPSSMYASLGERVTITCKASQDINNYLNWFQQKPGKSPKTLIYRANRLVDGVPSRFSGSGSGQDYSLTISSLEYEDMGIYYCLKYDEFPYTFGGGTKVEIKR
notes: also called chimeric antibody corresponding to m1718
On to B3, for which the binding result in [3], in [4], in assay [5], in assay [6], in assay [7] and in [8] was “binds” each time. Besides, the binding result in assay [9], in assay [10], in assay [11] and in assay [12] was “binds” throughout.
